Measured values reported in IntAct's records for PubMed 35512704.

B1: Speckle-type POZ protein (Homo sapiens), O43791 (parent)
chain: MSRVPSPPPPAEMSSGPVAESWCYTQIKVVKFSYMWTINNFSFCREEMGEVIKSSTFSSGANDKLKWCLRVNPKGLDEESKDYLSLYLLLVSCPKSEVRAKFKFSILNAKGEETKAMESQRAYRFVQGKDWGFKKFIRRDFLLDEANGLLPDDKLTLFCEVSVVQDSVNISGQNTMNMVKVPECRLADELGGLWENSRFTDCCLCVAGQEFQAHKAILAARSPVFSAMFEHEMEESKKNRVEINDVEPEVFKEMMCFIYTGKAPNLDKMADDLLAAADKYALERLKVMCEDALCSNLSVENAAEILILADLHSADQLKTQAVDFINYHASDVLETSGWKSMVVSHPHLVAEAYRSLASAQCPFLGPPRKRLKQS
partner: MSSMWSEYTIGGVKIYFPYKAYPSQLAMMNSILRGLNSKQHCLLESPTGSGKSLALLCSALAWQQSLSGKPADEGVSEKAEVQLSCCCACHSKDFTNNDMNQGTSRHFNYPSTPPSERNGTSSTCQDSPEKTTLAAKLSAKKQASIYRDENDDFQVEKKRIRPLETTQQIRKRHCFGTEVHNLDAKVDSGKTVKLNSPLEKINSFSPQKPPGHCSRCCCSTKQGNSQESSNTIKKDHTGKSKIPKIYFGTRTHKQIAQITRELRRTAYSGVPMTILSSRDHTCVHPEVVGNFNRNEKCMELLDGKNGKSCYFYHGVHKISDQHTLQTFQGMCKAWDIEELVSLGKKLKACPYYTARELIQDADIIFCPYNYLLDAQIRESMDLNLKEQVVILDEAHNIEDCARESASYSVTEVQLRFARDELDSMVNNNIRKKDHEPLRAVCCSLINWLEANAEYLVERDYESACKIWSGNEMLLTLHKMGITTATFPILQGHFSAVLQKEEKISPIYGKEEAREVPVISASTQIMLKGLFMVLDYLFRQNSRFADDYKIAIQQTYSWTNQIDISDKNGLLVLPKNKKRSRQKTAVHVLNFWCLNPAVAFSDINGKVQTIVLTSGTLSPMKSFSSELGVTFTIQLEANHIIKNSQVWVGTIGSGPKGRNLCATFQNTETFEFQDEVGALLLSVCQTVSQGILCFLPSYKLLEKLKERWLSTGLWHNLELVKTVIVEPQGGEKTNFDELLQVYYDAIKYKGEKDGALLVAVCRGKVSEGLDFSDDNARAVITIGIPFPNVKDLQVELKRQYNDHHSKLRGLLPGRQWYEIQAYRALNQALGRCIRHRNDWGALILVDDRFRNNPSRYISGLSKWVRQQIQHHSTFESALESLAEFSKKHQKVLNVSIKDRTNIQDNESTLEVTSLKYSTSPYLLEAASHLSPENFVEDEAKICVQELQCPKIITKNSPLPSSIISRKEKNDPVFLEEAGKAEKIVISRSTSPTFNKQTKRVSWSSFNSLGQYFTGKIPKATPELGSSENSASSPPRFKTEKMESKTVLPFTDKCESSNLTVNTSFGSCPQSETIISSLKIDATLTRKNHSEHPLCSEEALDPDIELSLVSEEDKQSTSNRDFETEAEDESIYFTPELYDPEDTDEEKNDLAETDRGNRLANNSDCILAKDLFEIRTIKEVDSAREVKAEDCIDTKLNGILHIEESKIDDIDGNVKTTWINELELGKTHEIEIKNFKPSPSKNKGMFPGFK
B2: Speckle-type POZ protein (Homo sapiens), O43791 (parent)
chain: B1 chain
partner: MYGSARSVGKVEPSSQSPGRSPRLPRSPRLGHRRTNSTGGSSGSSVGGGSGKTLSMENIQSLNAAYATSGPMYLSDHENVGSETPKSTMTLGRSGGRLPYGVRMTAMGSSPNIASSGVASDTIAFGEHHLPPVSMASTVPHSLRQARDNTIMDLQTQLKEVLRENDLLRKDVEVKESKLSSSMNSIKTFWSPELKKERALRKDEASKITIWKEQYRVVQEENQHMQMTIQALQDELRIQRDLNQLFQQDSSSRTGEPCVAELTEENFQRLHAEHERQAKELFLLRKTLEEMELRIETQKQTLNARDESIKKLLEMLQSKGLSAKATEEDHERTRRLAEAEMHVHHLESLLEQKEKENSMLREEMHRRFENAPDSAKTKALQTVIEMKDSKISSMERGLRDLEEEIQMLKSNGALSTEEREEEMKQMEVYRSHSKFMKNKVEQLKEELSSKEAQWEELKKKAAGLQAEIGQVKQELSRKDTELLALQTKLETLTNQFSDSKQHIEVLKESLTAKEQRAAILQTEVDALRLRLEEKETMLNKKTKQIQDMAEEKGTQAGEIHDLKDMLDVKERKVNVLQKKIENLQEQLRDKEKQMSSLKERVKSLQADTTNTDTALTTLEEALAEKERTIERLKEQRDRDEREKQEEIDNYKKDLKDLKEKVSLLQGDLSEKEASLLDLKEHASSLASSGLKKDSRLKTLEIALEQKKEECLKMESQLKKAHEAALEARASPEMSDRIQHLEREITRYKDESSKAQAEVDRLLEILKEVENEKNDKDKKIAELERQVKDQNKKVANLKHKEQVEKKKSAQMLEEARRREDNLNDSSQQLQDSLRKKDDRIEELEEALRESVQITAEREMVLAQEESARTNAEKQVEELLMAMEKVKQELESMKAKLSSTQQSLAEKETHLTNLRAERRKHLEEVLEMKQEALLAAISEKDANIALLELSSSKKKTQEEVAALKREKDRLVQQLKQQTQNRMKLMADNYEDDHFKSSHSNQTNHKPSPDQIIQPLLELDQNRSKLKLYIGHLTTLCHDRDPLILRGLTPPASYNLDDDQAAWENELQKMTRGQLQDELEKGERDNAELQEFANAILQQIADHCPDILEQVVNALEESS
B3: Speckle-type POZ protein (Homo sapiens), O43791 (parent)
chain: B1 chain
partner: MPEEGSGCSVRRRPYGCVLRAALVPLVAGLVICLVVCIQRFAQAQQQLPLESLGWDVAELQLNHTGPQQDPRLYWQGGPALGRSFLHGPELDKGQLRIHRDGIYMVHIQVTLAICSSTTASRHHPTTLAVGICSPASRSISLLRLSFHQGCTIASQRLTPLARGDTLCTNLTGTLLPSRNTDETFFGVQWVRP

Variants of: B1
Details: with fancj_human BRIP1, Q9BX63

effect of a mutation on the interaction	Variant
with no effect	F102C

Variants of: B1
Details: with fancj_human BRIP1, Q9BX63
Remark: another data set of the same source

effect of a mutation on the interaction	Variant
with no effect	F133L

Variants of: B1
Details: with fancj_human BRIP1, Q9BX63
Remark: another data set of the same source

effect of a mutation on the interaction	Variant
with no effect	F133V

Variants of: B1
Details: with fancj_human BRIP1, Q9BX63
Remark: another data set of the same source

effect of a mutation on the interaction	Variant
with no effect	Y87C

Variants of: B2
Details: with rb6i2_human ERC1, Q8IUD2

effect of a mutation on the interaction	Variant
with no effect	F102C

Variants of: B2
Details: with rb6i2_human ERC1, Q8IUD2
Remark: another data set of the same source

effect of a mutation on the interaction	Variant
with no effect	F133V

Variants of: B2
Details: with rb6i2_human ERC1, Q8IUD2
Remark: another data set of the same source

effect of a mutation on the interaction	Variant
with no effect	F133L

Variants of: B2
Details: with rb6i2_human ERC1, Q8IUD2
Remark: another data set of the same source

effect of a mutation on the interaction	Variant
with no effect	Y87C

Variants of: B3
Details: with cd70_human CD70, P32970

effect of a mutation on the interaction	Variant
with no effect	Y87C

Variants of: B3
Details: with cd70_human CD70, P32970
Remark: another data set of the same source

effect of a mutation on the interaction	Variant
with no effect	F133L

Variants of: B3
Details: with cd70_human CD70, P32970
Remark: another data set of the same source

effect of a mutation on the interaction	Variant
with no effect	F133V
